Assay results as given in the RNAGym collection of RNA variant scans (doi:10.7554/elife.90254).

B1: LINE1-mini (parent)
chain: GGCAGAGCUCAACACAGCGUGGCAAAGUGGCUGUGGCUAGACUGCC

Variants of: B1
Test: self-cleavage, relative activity (ratio to wild type); higher = more cleavage; in vitro, sequencing; the parent is a self-cleaving ribozyme
With GGCAGAGCUCAACACACCGUGGCAAAGUGGCUGUGGCUAGACUGGC the self-cleavage was 0.56.
GGCAGAGCGCAACUCAGCGUGGCAAAGUGGCUGUGGCUAGACUGCC showed a self-cleavage of 0.06.
Work on GGCAAAGCUCAACACAGCGUGGCAAAGUGGCUGUGGCUACACUGCC yielded a self-cleavage of 0.04.
Work on GGCAGAGAUCAACACAGCGUGGCAAAGUGGCUGUGGCUAGACUGUC yielded a self-cleavage of 0.32.
Variant GGCCGAGCUCAAAACAGCGUGGCAAAGUGGCUGUGGCUAGACUGCC has a self-cleavage of 0.15.
With GGCAGAGUUCAACACAGCGUGGCAUAGUGGCUGUGGCUAGACUGCC the self-cleavage was 0.18.
With GGCAGAGUUCAACACAGCGUGGCAGAGUGGCUGUGGCUAGACUGCC the self-cleavage was 0.13.
Variant GGCAGAGCUCAACACAGCGUGGCAAAGCGGCCGUGGCUAGACUGCC has a self-cleavage of 0.27.
Work on GUCAGAGCUAAACACAGCGUGGCAAAGUGGCUGUGGCUAGACUGCC yielded a self-cleavage of 0.02.
Variant GGGAGAUCUCAACACAGCGUGGCAAAGUGGCUGUGGCUAGACUGCC has a self-cleavage of 0.22.
With GGCAGAGCUCAACUCAGCGUGGCAAAGUGGCUGCGGCUAGACUGCC the self-cleavage was 0.17.
For GGCAGAGCUCAACAUAGCGUGGCAAAGUGGCUGUGGCGAGACUGCC, the self-cleavage was 0.04.
GGCAGAGCUCAACAAAGCGUGGCAAAGUGGCUGAGGCUAGACUGCC showed a self-cleavage of 0.59.
For GGCAGAGCUCAACACAGCGUGGCAACAUGGCUGUGGCUAGACUGCC, the self-cleavage was 0.57.
In the case of GGCAGAGCUCAACACAGCGUGGCAAAGUGACUGUGUCUAGACUGCC, the self-cleavage is reported as 0.1.
With GGCAGAGCUCAACACAGCGUGGCAAAGUGACUGUGCCUAGACUGCC the self-cleavage was 0.07.
GGCAGAGCUCAACACAGCGUGGCAAAGUGGCUGUGGCUGUACUGCC showed a self-cleavage of 0.14.
With GGCAGAGCUCAACACAGCCUGGCAAAGUGGCUGUGGCUAGGCUGCC the self-cleavage was 0.03.
GGCAGAGAUCAACACAGGGUGGCAAAGUGGCUGUGGCUAGACUGCC gave a self-cleavage of 0.15.
GGCAGAGCUCAACACAGCGUGGCAAAAUGGCUGUGGCUAGACUCCC showed a self-cleavage of 0.65.
For AGCAGAGCUCAACACAGCGUGGCAAAGUGGCUGUAGCUAGACUGCC, the self-cleavage was 0.2.
GGUAGAGCUCAACUCAGCGUGGCAAAGUGGCUGUGGCUAGACUGCC gave a self-cleavage of 0.19.
Work on GACAGAGCUCAACACAGCGUGGCAAAGUGGCUGUGGCUAGACCGCC yielded a self-cleavage of 0.13.
With GGCAGAGCUCAACACAGCGUGGCAAAGUGGCUUUGGCCAGACUGCC the self-cleavage was 0.08.
Variant GGCCGAGCUCAACACAGCGUGGCAAAGUGGCUGUGGCUAGACUGCG has a self-cleavage of 0.13.
GGCAGAGCUCAACACAGCGUGGCAAAGUAGCUGUGGCUAGCCUGCC showed a self-cleavage of 0.05.
In the case of GGAAGAGCUCAACACAGCGUGGCAAAGUGGCUGUGGGUAGACUGCC, the self-cleavage is reported as 0.28.
In the case of GGCACAGCUCAACACAGCGUGGUAAAGUGGCUGUGGCUAGACUGCC, the self-cleavage is reported as 0.05.
With GGCAGAGCUCAACACAGCGUGGCAAAGUUGCUGUGGAUAGACUGCC the self-cleavage was 0.13.
Work on GGCAGAGCUCAACACAGCGUGGAAAAGUGGCUGUUGCUAGACUGCC yielded a self-cleavage of 0.22.
Variant GGCAUAGCUCAACACAGCGUGGCAGAGUGGCUGUGGCUAGACUGCC has a self-cleavage of 0.12.
In the case of GGCAGAGUUCAACACAGCGUGGCAAAGUCGCUGUGGCUAGACUGCC, the self-cleavage is reported as 0.1.
Work on GGCACAGCUCAACACAGAGUGGCAAAGUGGCUGUGGCUAGACUGCC yielded a self-cleavage of 0.05.
GGCAGAGCUCAACACAGCGUGGCAAAGUGACUGUGGUUAGACUGCC gave a self-cleavage of 0.11.
GGCAGAGCUCAACACAGCGUGGCAAAGUGCCUGUGGCUAGACUGCU showed a self-cleavage of 1.09.
With GGCAGAGCUUAACACAGCUUGGCAAAGUGGCUGUGGCUAGACUGCC the self-cleavage was 0.21.
GGCAGAGCUCAACACAGCGUGGCAAAGUGGCUGUGGCUAGAAUUCC gave a self-cleavage of 0.11.
GGCAGAGCUCAACACAGCGUUGCACAGUGGCUGUGGCUAGACUGCC gave a self-cleavage of 1.44.
GGCAGAGCUCACCACAGCGUGGCUAAGUGGCUGUGGCUAGACUGCC gave a self-cleavage of 0.03.
With GGCAGAGCUCAACACAGCGUGGCAAAAUGGCUGUGGCUAGGCUGCC the self-cleavage was 0.38.
In the case of GGCAGACCUCAACACAGCGUGGCAAAGUGACUGUGGCUAGACUGCC, the self-cleavage is reported as 0.13.
With GGAAGAGCUCAACACAGCGUGGCAAAGUGGCUGUGGCUAGACUGUC the self-cleavage was 0.53.
Variant GGCAGAGCUCAACACAGCGUGGCAAAGUGGCUGUUGCUAGACUGCU has a self-cleavage of 0.1.
GGCAGAGCUCAACACAGCGUGGCAAAGUGGCUUUGGUUAGACUGCC gave a self-cleavage of 0.06.
With GGAAGAGCUCAACACAGCGUGGCAAAGUGGAUGUGGCUAGACUGCC the self-cleavage was 0.16.
For GGCCGAGCUCAACACUGCGUGGCAAAGUGGCUGUGGCUAGACUGCC, the self-cleavage was 0.05.
For GGCAGAGCUCAAAACAGAGUGGCAAAGUGGCUGUGGCUAGACUGCC, the self-cleavage was 0.09.
GGCAGAGCUCAAGACAGCGUGGCAAAGUGGCUGUGGCUAGAGUGCC showed a self-cleavage of 0.09.
With GGCAGAGCUCAACACAGCGUGGCAAAGUGUCUGUGGCUAGACUACC the self-cleavage was 0.42.
In the case of GGCAGAGCUCCACACAGCGUGGCAAAGUGGCAGUGGCUAGACUGCC, the self-cleavage is reported as 0.04.
In the case of GACAGAGCUCAACAGAGCGUGGCAAAGUGGCUGUGGCUAGACUGCC, the self-cleavage is reported as 0.05.
Variant GGCAGAGCUCAUCACAGCGUGGCAAAGUGGCUGUGGCUAGUCUGCC has a self-cleavage of 0.18.
Variant GGCAGAGCUCAACACAGCGUGGCAAAGUGGCUGUGGAUAGACUGAC has a self-cleavage of 0.19.
Work on GGACGAGCUCAACACAGCGUGGCAAAGUGGCUGUGGCUAGACUGCC yielded a self-cleavage of 0.25.
Work on AGCAGAGCUCAACACAGCGUGGCGAAGUGGCUGUGGCUAGACUGCC yielded a self-cleavage of 2.89.
In the case of CGAAGAGCUCAACACAGCGUGGCAAAGUGGCUGUGGCUAGACUGCC, the self-cleavage is reported as 0.19.
